Assay results taken from patent publication US5792629A, “Isolated DNA encoding novel protease inhibitory polypeptide” (Mochida Pharmaceutical Co., Ltd., priority 1990, dated 1998).
Changes are numbered by the printed parent chain. Numbers in names are those of the source.

Legend:
trypsin = conditions: literature report; cited from earlier work
kallikrein = conditions: literature report; cited from earlier work
plasmin = plasmin (Homo sapiens, UniProt P00747); conditions: literature report; cited from earlier work
FXa = FXa (Homo sapiens, UniProt P00742); assay: Human FXa-inhibiting activity, substrate S-2222; format: biochemical; set-up: purchased American Diagnostica Inc; conditions: purified products, FIG. 25 and FIG. 26
Procedure: The purified sample obtained in Example 1-(5) was dissolved in 100 μl of distilled water. Concentration of this solution was determined based on its bovine trypsin-inhibiting activity using the aforementioned UTI as a standard. The solution was then diluted to various concentration levels with 0.1% BSA/150 mM NaCl/5 mM CaCl2 /50 mM Tris-HCl buffer (pH 8.3) for use in the activity measurement. The UTI was also diluted in the same manner. Using a synthetic compound S-2222 (Daiichi Pure Chemicals Co., Ltd.) as a substrate, human FXa-inhibiting activities of the diluted test samples and the positive control were measured in accordance with the method of Ohno et al. (Ohno,H. et al., Thromb. Res., vol.19, pp.579-588, 1980) as follows.
Human FXa (American Diagnostica Inc.) was dissolved in distilled water to a concentration of 10 PEU/ml and the solution was further diluted with 0.1% BSA/150 mM NaCl/5 mM CaCl2 /50 mM Tris-HCl buffer (pH 8.3) to prepare 0.1 PEU/ml of FXa solution. 4 mM solution of S-2222 was prepared by dissolving it in distilled water and the solution was further diluted with 0.1% BSA/150 mM NaCl/5 MM CaCl2 /50 mM Tris-HCl buffer (pH 8.3) to obtain 2 mM solution of S-2222.
(§1) Next, 25 μl of the test sample or positive control was mixed with 100 μl of 0.1% BSA/150 mM NaCl/5 mM CaCl2 /50 mM Tris-HCl buffer (pH 8.3) and 25 μl of the FXa solution. After incubation at 37° C. for 10 minutes, 100 μl of the S-2222 solution was added to the mixture to start the reaction. The reaction was carried out at 37° C. for 30 minutes and then stopped by adding 50 μl of 50% acetic acid solution to the reaction mixture. Thereafter, absorbance at 405 nm was measured using a spectrophotometer.
In this instance, in order to eliminate absorbance of various solutions in the reaction mixture, a blank solution was prepared by mixing 25 μl of the FXa solution with 50 μl of 50% acetic acid and then with 25 μl of each test sample or the positive control, 100 μl of 0.1% BSA/150 mM NaCl/5 mM CaCl2 /50 mM Tris-HCl buffer (pH 8.3) and with 100 μl of the S-2222 solution.
In this figure, human FXa remaining activity was expressed by percentage based on the absorbance of a control reaction mixture in which 25 μl of 0.1% BSA/150 mM NaCl/5 mM CaCl2 /50 mM Tris-HCl buffer (pH 8.3) was used instead of the test sample or the positive control.

Human trypsin = biological target: T1, Human trypsin (Homo sapiens, UniProt P07477); assay: Human trypsin-inhibiting activity, substrate S-2444; format: biochemical; conditions: purified products, concentration as U/ml bovine trypsin-inhibiting activity based on UTI
T1 construct: purchased Calbiochem
Procedure: The purified sample obtained in Example 1-(5) was dissolved in 100 μl of distilled water. Concentration of this solution was determined based on its bovine trypsin-inhibiting activity using the aforementioned UTI as a standard. The solution was then diluted to various concentration levels with 0.1% BSA/0.2M triethanolamine-HCl buffer (pH 7.8) for the activity measurement. The aforementioned UTI was also diluted in the same manner.
Using the aforementioned synthetic compound S-2444 as a substrate, human trypsin-inhibiting activities of the diluted test samples and the positive control were measured in accordance with the method of Kassell (Kassell B., Methods in Enzymol., vol 19, pp.84-852, 1970) as follows.
Human trypsin (Calbiochem) was dissolved in 0.001M HCl to a concentration of 1,000 SU/ml and the solution was further diluted with 0.1% BSA/0.2M triethanolamine-HCl buffer (pH 7.8) to prepare 1.25 SU/ml of trypsin solution. 2 mM solution of S-2444 was prepared by dissolving it in distilled water.
as §1, with “Next, 100” for “Next, 25”, “of” for “of 0.1% BSA/150 mM NaCl/5 mM CaCl2 /50 mM Tris-HCl buffer (pH 8.3) and 25 μl of”, “the trypsin” for “the FXa”, “minutes, 50” for “minutes, 100”, “the S-2444” for “the S-2222”, “for 20” for “for 30”
In this instance, in order to eliminate absorbance of various solutions in the reaction mixture, a blank solution was prepared by mixing 100 μl of the trypsin solution with 50 μl of 50% acetic acid and then with 100 μl of each test sample or the positive control and with 50 μl of the S-2444 solution.
In this figure, human trypsin remaining activity was expressed by percentage based on the absorbance of a control reaction mixture in which 100 μl of 0.1% BSA/0.2M triethanolamine-HCl buffer (pH 7.8) was used instead of the test sample or the positive control.

Sequence of FXa (P00742 235-488 limits assumed): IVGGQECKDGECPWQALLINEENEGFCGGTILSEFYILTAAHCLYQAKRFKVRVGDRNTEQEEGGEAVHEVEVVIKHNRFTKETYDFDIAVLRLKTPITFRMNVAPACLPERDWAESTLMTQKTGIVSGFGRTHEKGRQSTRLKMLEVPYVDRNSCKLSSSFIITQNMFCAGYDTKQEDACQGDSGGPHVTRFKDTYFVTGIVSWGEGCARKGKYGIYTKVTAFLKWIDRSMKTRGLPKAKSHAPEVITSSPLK
Sequence of FXa (P00742 41-179 partner limits assumed): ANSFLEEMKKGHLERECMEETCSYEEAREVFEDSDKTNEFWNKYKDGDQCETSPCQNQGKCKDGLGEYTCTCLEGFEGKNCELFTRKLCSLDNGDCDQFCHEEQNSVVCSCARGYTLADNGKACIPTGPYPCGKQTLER
Sequence of plasmin (P00747 581-810 limits assumed, species assumed): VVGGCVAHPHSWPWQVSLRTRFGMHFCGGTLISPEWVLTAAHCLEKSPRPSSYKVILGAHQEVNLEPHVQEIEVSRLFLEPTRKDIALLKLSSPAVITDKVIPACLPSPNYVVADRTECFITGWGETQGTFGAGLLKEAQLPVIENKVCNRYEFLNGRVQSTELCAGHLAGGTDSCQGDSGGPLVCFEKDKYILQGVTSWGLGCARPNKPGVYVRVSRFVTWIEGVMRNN
Sequence of plasmin (P00747 97-580 partner limits assumed, species assumed): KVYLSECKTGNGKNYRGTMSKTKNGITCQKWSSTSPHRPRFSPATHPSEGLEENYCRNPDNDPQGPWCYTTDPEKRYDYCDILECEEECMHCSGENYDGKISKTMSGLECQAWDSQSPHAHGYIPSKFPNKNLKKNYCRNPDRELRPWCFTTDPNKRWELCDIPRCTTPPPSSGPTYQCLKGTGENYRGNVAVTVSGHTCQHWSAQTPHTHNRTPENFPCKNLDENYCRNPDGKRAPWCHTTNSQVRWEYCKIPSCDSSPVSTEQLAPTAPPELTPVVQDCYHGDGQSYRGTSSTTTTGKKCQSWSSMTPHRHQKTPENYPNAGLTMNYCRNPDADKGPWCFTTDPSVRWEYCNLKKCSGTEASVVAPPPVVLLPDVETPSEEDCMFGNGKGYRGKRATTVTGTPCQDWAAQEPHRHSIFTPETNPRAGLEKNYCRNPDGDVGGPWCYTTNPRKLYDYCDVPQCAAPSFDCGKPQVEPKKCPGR

## aprotinin [reference compound]
trypsin
  inhibition of trypsin: inhibits
kallikrein
  inhibition of kallikrein: inhibits
plasmin
  inhibition of plasmin: inhibits

B1: Y46E: polypeptide defined by the amino acid sequence of formula 5, purified from culture supernatant of E. coli JE5505 (pM575B) (protein)
chain: TVAACNLPIVRGPCRAFIQLWAFDAVKGKCVLFPYGGCQGNGNKFESEKECREYCGVPGDGDEELLRFSN
FXa
  human FXa-inhibiting activity relative to polypeptide TN70: about 7 times
Human trypsin
  human trypsin-inhibiting activity compared with polypeptides TN70 and TL66: almost the same

B2: Q19K: polypeptide defined by the amino acid sequence of formula 6, purified from culture supernatant of E. coli JE5505 (pM576) (protein)
chain: B1 chain with T1D, V2D, Q19K, E46Y
FXa
  human FXa-inhibiting activity relative to polypeptide TN70: about 5 times
Human trypsin
  human trypsin-inhibiting activity compared with polypeptides TN70 and TL66: almost the same
